B1: ABCG5/G8 (Homo sapiens) (protein)
chain 1: MGDLSSLTPGGSMGLQVNRGSQSSLEGAPATAPEPHSLGILHASYSVSHRVRPWWDITSCRQQWTRQILKDVSLYVESGQIMCILGSSGSGKTTLLDAMSGRLGRAGTFLGEVYVNGRALRREQFQDCFSYVLQSDTLLSSLTVRETLHYTALLAIRRGNPGSFQKKVEAVMAELSLSHVADRLIGNYSLGGISTGERRRVSIAAQLLQDPKVMLFDEPTTGLDCMTANQIVVLLVELARRNRIVVLTIHQPRSELFQLFDKIAILSFGELIFCGTPAEMLDFFNDCGYPCPEHSNPFDFYMDLTSVDTQSKEREIETSKRVQMIESAYKKSAICHKTLKNIERMKHLKTLPMVPFKTKDSPGVFSKLGVLLRRVTRNLVRNKLAVITRLLQNLIMGLFLLFFVLRVRSNVLKGAIQDRVGLLYQFVGATPYTGMLNAVNLFPVLRAVSDQESQDGLYQKWQMMLAYALHVLPFSVVATMIFSSVCYWTLGLHPEVARFGYFSAALLAPHLIGEFLTLVLLGIVQNPNIVNSVVALLSIAGVLVGSGFLRNIQEMPIPFKIISYFTFQKYCSEILVVNEFYGLNFTCGSSNVSVTTNPMCAFTQGIQFIEKTCPGATSRFTMNFLILYSFIPALVILGIVVFKIRDHLISR
chain 2: MAGKAAEERGLPKGATPQDTSGLQDRLFSSESDNSLYFTYSGQPNTLEVRDLNYQVDLASQVPWFEQLAQFKMPWTSPSCQNSCELGIQNLSFKVRSGQMLAIIGSSGCGRASLLDVITGRGHGGKIKSGQIWINGQPSSPQLVRKCVAHVRQHNQLLPNLTVRETLAFIAQMRLPRTFSQAQRDKRVEDVIAELRLRQCADTRVGNMYVRGLSGGERRRVSIGVQLLWNPGILILDEPTSGLDSFTAHNLVKTLSRLAKGNRLVLISLHQPRSDIFRLFDLVLLMTSGTPIYLGAAQHMVQYFTAIGYPCPRYSNPADFYVDLTSIDRRSREQELATREKAQSLAALFLEKVRDLDDFLWKAETKDLDEDTCVESSVTPLDTNCLPSPTKMPGAVQQFTTLIRRQISNDFRDLPTLLIHGAEACLMSMTIGFLYFGHGSIQLSFMDTAALLFMIGALIPFNVILDVISKCYSERAMLYYELEDGLYTTGPYFFAKILGELPEHCAYIIIYGMPTYWLANLRPGLQPFLLHFLLVWLVVFCCRIMALAAAALLPTFHMASFFSNALYNSFYLAGGFMINLSSLWTVPAWISKVSFLRWCFEGLMKIQFSRRTYKMPLGNLTIAVSGDKILSVMELDSYPLYAIYLIVIGLSGGFMVLYYVSLRFIKQKPSQDW
notes: full-length heterodimer; ABCG5 C-terminal His6GlyHis6, ABCG8 C-terminal 3C site and CBP (CBP tag and N-glycans kept); Pichia pastoris KM71H; DDM-purified
B2: ABCG5/G8 (Homo sapiens; Q9H222:A540F) (protein)
chain 1: MGDLSSLTPGGSMGLQVNRGSQSSLEGAPATAPEPHSLGILHASYSVSHRVRPWWDITSCRQQWTRQILKDVSLYVESGQIMCILGSSGSGKTTLLDAMSGRLGRAGTFLGEVYVNGRALRREQFQDCFSYVLQSDTLLSSLTVRETLHYTALLAIRRGNPGSFQKKVEAVMAELSLSHVADRLIGNYSLGGISTGERRRVSIAAQLLQDPKVMLFDEPTTGLDCMTANQIVVLLVELARRNRIVVLTIHQPRSELFQLFDKIAILSFGELIFCGTPAEMLDFFNDCGYPCPEHSNPFDFYMDLTSVDTQSKEREIETSKRVQMIESAYKKSAICHKTLKNIERMKHLKTLPMVPFKTKDSPGVFSKLGVLLRRVTRNLVRNKLAVITRLLQNLIMGLFLLFFVLRVRSNVLKGAIQDRVGLLYQFVGATPYTGMLNAVNLFPVLRAVSDQESQDGLYQKWQMMLAYALHVLPFSVVATMIFSSVCYWTLGLHPEVARFGYFSAALLAPHLIGEFLTLVLLGIVQNPNIVNSVVALLSIFGVLVGSGFLRNIQEMPIPFKIISYFTFQKYCSEILVVNEFYGLNFTCGSSNVSVTTNPMCAFTQGIQFIEKTCPGATSRFTMNFLILYSFIPALVILGIVVFKIRDHLISR
chain 2: MAGKAAEERGLPKGATPQDTSGLQDRLFSSESDNSLYFTYSGQPNTLEVRDLNYQVDLASQVPWFEQLAQFKMPWTSPSCQNSCELGIQNLSFKVRSGQMLAIIGSSGCGRASLLDVITGRGHGGKIKSGQIWINGQPSSPQLVRKCVAHVRQHNQLLPNLTVRETLAFIAQMRLPRTFSQAQRDKRVEDVIAELRLRQCADTRVGNMYVRGLSGGERRRVSIGVQLLWNPGILILDEPTSGLDSFTAHNLVKTLSRLAKGNRLVLISLHQPRSDIFRLFDLVLLMTSGTPIYLGAAQHMVQYFTAIGYPCPRYSNPADFYVDLTSIDRRSREQELATREKAQSLAALFLEKVRDLDDFLWKAETKDLDEDTCVESSVTPLDTNCLPSPTKMPGAVQQFTTLIRRQISNDFRDLPTLLIHGAEACLMSMTIGFLYFGHGSIQLSFMDTAALLFMIGALIPFNVILDVISKCYSERAMLYYELEDGLYTTGPYFFAKILGELPEHCAYIIIYGMPTYWLANLRPGLQPFLLHFLLVWLVVFCCRIMALAAAALLPTFHMASFFSNALYNSFYLAGGFMINLSSLWTVPAWISKVSFLRWCFEGLMKIQFSRRTYKMPLGNLTIAVSGDKILSVMELDSYPLYAIYLIVIGLSGGFMVLYYVSLRFIKQKPSQDW
notes: as for B1
B3: ABCG5/G8 (Homo sapiens; Q9H221:R543S) (protein)
chain 1: MGDLSSLTPGGSMGLQVNRGSQSSLEGAPATAPEPHSLGILHASYSVSHRVRPWWDITSCRQQWTRQILKDVSLYVESGQIMCILGSSGSGKTTLLDAMSGRLGRAGTFLGEVYVNGRALRREQFQDCFSYVLQSDTLLSSLTVRETLHYTALLAIRRGNPGSFQKKVEAVMAELSLSHVADRLIGNYSLGGISTGERRRVSIAAQLLQDPKVMLFDEPTTGLDCMTANQIVVLLVELARRNRIVVLTIHQPRSELFQLFDKIAILSFGELIFCGTPAEMLDFFNDCGYPCPEHSNPFDFYMDLTSVDTQSKEREIETSKRVQMIESAYKKSAICHKTLKNIERMKHLKTLPMVPFKTKDSPGVFSKLGVLLRRVTRNLVRNKLAVITRLLQNLIMGLFLLFFVLRVRSNVLKGAIQDRVGLLYQFVGATPYTGMLNAVNLFPVLRAVSDQESQDGLYQKWQMMLAYALHVLPFSVVATMIFSSVCYWTLGLHPEVARFGYFSAALLAPHLIGEFLTLVLLGIVQNPNIVNSVVALLSIAGVLVGSGFLRNIQEMPIPFKIISYFTFQKYCSEILVVNEFYGLNFTCGSSNVSVTTNPMCAFTQGIQFIEKTCPGATSRFTMNFLILYSFIPALVILGIVVFKIRDHLISR
chain 2: MAGKAAEERGLPKGATPQDTSGLQDRLFSSESDNSLYFTYSGQPNTLEVRDLNYQVDLASQVPWFEQLAQFKMPWTSPSCQNSCELGIQNLSFKVRSGQMLAIIGSSGCGRASLLDVITGRGHGGKIKSGQIWINGQPSSPQLVRKCVAHVRQHNQLLPNLTVRETLAFIAQMRLPRTFSQAQRDKRVEDVIAELRLRQCADTRVGNMYVRGLSGGERRRVSIGVQLLWNPGILILDEPTSGLDSFTAHNLVKTLSRLAKGNRLVLISLHQPRSDIFRLFDLVLLMTSGTPIYLGAAQHMVQYFTAIGYPCPRYSNPADFYVDLTSIDRRSREQELATREKAQSLAALFLEKVRDLDDFLWKAETKDLDEDTCVESSVTPLDTNCLPSPTKMPGAVQQFTTLIRRQISNDFRDLPTLLIHGAEACLMSMTIGFLYFGHGSIQLSFMDTAALLFMIGALIPFNVILDVISKCYSERAMLYYELEDGLYTTGPYFFAKILGELPEHCAYIIIYGMPTYWLANLRPGLQPFLLHFLLVWLVVFCCSIMALAAAALLPTFHMASFFSNALYNSFYLAGGFMINLSSLWTVPAWISKVSFLRWCFEGLMKIQFSRRTYKMPLGNLTIAVSGDKILSVMELDSYPLYAIYLIVIGLSGGFMVLYYVSLRFIKQKPSQDW
notes: as for B1
B4: ABCG5/G8 (Homo sapiens; Q9H222:E146Q) (protein)
chain 1: MGDLSSLTPGGSMGLQVNRGSQSSLEGAPATAPEPHSLGILHASYSVSHRVRPWWDITSCRQQWTRQILKDVSLYVESGQIMCILGSSGSGKTTLLDAMSGRLGRAGTFLGEVYVNGRALRREQFQDCFSYVLQSDTLLSSLTVRQTLHYTALLAIRRGNPGSFQKKVEAVMAELSLSHVADRLIGNYSLGGISTGERRRVSIAAQLLQDPKVMLFDEPTTGLDCMTANQIVVLLVELARRNRIVVLTIHQPRSELFQLFDKIAILSFGELIFCGTPAEMLDFFNDCGYPCPEHSNPFDFYMDLTSVDTQSKEREIETSKRVQMIESAYKKSAICHKTLKNIERMKHLKTLPMVPFKTKDSPGVFSKLGVLLRRVTRNLVRNKLAVITRLLQNLIMGLFLLFFVLRVRSNVLKGAIQDRVGLLYQFVGATPYTGMLNAVNLFPVLRAVSDQESQDGLYQKWQMMLAYALHVLPFSVVATMIFSSVCYWTLGLHPEVARFGYFSAALLAPHLIGEFLTLVLLGIVQNPNIVNSVVALLSIAGVLVGSGFLRNIQEMPIPFKIISYFTFQKYCSEILVVNEFYGLNFTCGSSNVSVTTNPMCAFTQGIQFIEKTCPGATSRFTMNFLILYSFIPALVILGIVVFKIRDHLISR
chain 2: MAGKAAEERGLPKGATPQDTSGLQDRLFSSESDNSLYFTYSGQPNTLEVRDLNYQVDLASQVPWFEQLAQFKMPWTSPSCQNSCELGIQNLSFKVRSGQMLAIIGSSGCGRASLLDVITGRGHGGKIKSGQIWINGQPSSPQLVRKCVAHVRQHNQLLPNLTVRETLAFIAQMRLPRTFSQAQRDKRVEDVIAELRLRQCADTRVGNMYVRGLSGGERRRVSIGVQLLWNPGILILDEPTSGLDSFTAHNLVKTLSRLAKGNRLVLISLHQPRSDIFRLFDLVLLMTSGTPIYLGAAQHMVQYFTAIGYPCPRYSNPADFYVDLTSIDRRSREQELATREKAQSLAALFLEKVRDLDDFLWKAETKDLDEDTCVESSVTPLDTNCLPSPTKMPGAVQQFTTLIRRQISNDFRDLPTLLIHGAEACLMSMTIGFLYFGHGSIQLSFMDTAALLFMIGALIPFNVILDVISKCYSERAMLYYELEDGLYTTGPYFFAKILGELPEHCAYIIIYGMPTYWLANLRPGLQPFLLHFLLVWLVVFCCRIMALAAAALLPTFHMASFFSNALYNSFYLAGGFMINLSSLWTVPAWISKVSFLRWCFEGLMKIQFSRRTYKMPLGNLTIAVSGDKILSVMELDSYPLYAIYLIVIGLSGGFMVLYYVSLRFIKQKPSQDW
notes: as for B1

What follows are proteins tested on Nc1ncnc2c1ncn2[C@@H]1O[C@H](COP(=O)(O)OP(=O)(O)OP(=O)(O)O)[C@@H](O)[C@H]1O (assay: colorimetric bismuth citrate phosphate-release ATPase assay). Conditions: E. coli polar lipids, 1.5% sodium cholate, 4.1 mM CHS, Mg2+, 0.1% DDM, pH 7.5, 37 °C.
Type: biochemical, Homo sapiens
Excerpt: colorimetric bismuth citrate phosphate-release ATPase assay on ABCG5/G8

B1 and B2 are within error of each other in Km: 600 ± 70 µM for the first, 580 ± 80 µM for the second.

B3 and B4 are within error of each other in Km: 420 ± 40 µM for the first, 510 ± 50 µM for the second.

Going from B1 to B2, the Vmax falls from 0.677 µmol/min/mg to 0.101 µmol/min/mg.

Going from B3 to B4, the Vmax rises from 0.151 µmol/min/mg to 0.167 µmol/min/mg.

Going from B1 to B2, the kcat falls from 1.69 ± 0.06 s⁻¹ to 0.25 ± 0.01 s⁻¹ (6.8-fold).

B3 and B4 are within 1.5-fold of each other in kcat: 0.38 ± 0.01 s⁻¹ for the first, 0.41 s⁻¹ for the second.

First: B1
Second: B2
The kcat/Km of the first is 6.5-fold higher: 2800 M⁻¹ s⁻¹ for the first, 430 M⁻¹ s⁻¹ for the second.

B3 and B4 are within 1.5-fold of each other in kcat/Km: 900 M⁻¹ s⁻¹ for the first, 820 M⁻¹ s⁻¹ for the second.

Reference: PMC7699580, “Transmembrane Polar Relay Drives the Allosteric Regulation for ABCG5/G8 Sterol Transporter” (International Journal of Molecular Sciences, 2020)
